Experimental data as given in patent publication US20030049729.

T1: human fibrinogen fragments, P02671
T1 chain 1: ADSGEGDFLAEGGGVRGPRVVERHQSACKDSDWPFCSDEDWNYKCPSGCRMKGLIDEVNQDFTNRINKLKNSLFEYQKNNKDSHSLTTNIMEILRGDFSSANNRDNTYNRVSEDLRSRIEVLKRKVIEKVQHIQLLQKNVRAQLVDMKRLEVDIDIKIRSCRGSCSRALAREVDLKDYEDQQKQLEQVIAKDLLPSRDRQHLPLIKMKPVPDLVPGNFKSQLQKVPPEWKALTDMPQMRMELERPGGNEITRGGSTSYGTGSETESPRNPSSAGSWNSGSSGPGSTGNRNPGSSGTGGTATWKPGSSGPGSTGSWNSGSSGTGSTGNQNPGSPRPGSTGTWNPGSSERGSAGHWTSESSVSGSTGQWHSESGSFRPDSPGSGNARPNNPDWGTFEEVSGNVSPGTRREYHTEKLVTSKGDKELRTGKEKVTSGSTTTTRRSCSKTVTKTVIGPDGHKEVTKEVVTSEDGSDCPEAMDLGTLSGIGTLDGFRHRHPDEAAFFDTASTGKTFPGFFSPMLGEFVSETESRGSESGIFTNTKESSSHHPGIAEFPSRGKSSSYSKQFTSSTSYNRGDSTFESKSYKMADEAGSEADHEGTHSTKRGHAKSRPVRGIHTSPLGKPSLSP
T1 chain 2: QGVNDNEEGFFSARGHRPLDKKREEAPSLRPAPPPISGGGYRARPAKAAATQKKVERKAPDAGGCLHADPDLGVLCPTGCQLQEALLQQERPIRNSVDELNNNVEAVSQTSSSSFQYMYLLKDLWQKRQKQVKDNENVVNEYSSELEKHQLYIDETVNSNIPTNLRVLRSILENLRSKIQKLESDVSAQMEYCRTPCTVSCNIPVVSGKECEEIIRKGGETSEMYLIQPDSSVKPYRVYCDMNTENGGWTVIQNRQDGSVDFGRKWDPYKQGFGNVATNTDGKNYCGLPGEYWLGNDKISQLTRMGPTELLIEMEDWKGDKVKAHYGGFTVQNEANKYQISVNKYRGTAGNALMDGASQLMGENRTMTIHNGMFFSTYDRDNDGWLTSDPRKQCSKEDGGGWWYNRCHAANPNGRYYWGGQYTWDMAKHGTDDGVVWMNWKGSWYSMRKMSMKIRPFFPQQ
T1 chain 3: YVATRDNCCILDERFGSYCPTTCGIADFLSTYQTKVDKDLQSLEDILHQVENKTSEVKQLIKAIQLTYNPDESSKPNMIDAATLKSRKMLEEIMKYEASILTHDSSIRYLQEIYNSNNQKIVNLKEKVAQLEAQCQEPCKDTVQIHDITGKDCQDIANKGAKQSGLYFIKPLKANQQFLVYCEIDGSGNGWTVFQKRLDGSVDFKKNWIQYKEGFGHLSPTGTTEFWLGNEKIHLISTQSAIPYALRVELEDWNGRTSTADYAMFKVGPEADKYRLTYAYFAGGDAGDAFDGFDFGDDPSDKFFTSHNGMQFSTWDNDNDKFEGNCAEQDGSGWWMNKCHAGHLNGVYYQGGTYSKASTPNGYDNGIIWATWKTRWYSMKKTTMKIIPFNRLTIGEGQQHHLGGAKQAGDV

B1: standard melanoma tPA 86/670 (protein)
chain: SYQVICRDEKTQMIYQQHQSWLRPVLRSNRVEYCWCNSGRAQCHSVPVKSCSEPRCFNGGTCQQALYFSDFVCQCPEGFAGKCCEIDTRATCYEDQGISYRGTWSTAESGAECTNWNSSALAQKPYSGRRPDAIRLGLGNHNYCRNPDRDSKPWCYVFKAGKYSSEFCSTPACSEGNSDCYFGNGSAYRGTHSLTESGASCLPWNSMILIGKVYTAQNPSAQALGLGKHNYCRNPDGDAKPWCHVLKNRRLTWEYCDVPSCSTCGLRQYSQPQFRIKGGLFADIASHPWQAAIFAKHRRSPGERFLCGGILISSCWILSAAHCFQERFPPHHLTVILGRTYRVVPGEEEQKFEVEKYIVHKEFDDDTYDNDIALLQLKSDSSRCAQESSVVRTVCLPPADLQLPDWTECELSGYGKHEALSPFYSERLKEAHVRLYPSSRCTSQHLLNRTVTDNMLCAGDTRSGGPQANLHDACQGDSGGPLVCLNDGRMTLVGIISWGLGCGQKDVPGVYTKVTNYLDWIRDNMRP
B2: recombinant-K2S (r-K2S), kringle 2 plus serine protease portion of tPA, expressed in non-gpIII fusion form in XM[K2S] (protein)
chain: SEGNSDCYFGNGSAYRGTHSLTESGASCLPWNSMILIGKVYTAQNPSAQALGLGKHNYCRNPDGDAKPWCHVLKNRRLTWEYCDVPSCSTCGLRQYSQPQFRIKGGLFADIASHPWQAAIFAKHRRSPGERFLCGGILISSCWILSAAHCFQERFPPHHLTVILGRTYRVVPGEEEQKFEVEKYIVHKEFDDDTYDNDIALLQLKSDSSRCAQESSVVRTVCLPPADLQLPDWTECELSGYGKHEALSPFYSERLKEAHVRLYPSSRCTSQHLLNRTVTDNMLCAGDTRSGGPQANLHDACQGDSGGPLVCLNDGRMTLVGIISWGLGCGQKDVPGVYTKVTNYLDWIRDNMRP

Experiments:
[1] = target: T1, human fibrinogen fragments, P02671

Chain of plasminogen (P00747 20-810): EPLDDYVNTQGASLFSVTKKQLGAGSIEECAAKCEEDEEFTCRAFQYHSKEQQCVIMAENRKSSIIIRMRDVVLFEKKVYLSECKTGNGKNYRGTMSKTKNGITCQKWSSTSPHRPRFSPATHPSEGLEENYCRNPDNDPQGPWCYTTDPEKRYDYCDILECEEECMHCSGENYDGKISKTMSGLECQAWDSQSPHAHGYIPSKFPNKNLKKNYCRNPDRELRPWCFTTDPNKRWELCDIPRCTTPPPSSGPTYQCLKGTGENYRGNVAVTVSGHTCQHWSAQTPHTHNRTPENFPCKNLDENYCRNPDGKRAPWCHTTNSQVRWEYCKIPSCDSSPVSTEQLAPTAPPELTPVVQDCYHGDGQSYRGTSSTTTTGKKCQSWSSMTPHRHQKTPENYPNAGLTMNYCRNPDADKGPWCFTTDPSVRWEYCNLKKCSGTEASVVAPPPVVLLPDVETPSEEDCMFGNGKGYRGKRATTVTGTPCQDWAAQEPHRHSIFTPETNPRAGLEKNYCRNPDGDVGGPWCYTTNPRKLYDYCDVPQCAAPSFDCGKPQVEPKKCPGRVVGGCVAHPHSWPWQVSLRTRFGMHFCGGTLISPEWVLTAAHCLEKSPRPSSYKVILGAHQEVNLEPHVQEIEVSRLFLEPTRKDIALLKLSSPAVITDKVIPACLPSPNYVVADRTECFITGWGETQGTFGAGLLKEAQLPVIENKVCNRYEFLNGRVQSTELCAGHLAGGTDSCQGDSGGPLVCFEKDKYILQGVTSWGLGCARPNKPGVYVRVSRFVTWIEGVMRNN

Protein | copolymerized plasminogen polyacrylamide gel electrophoresis (plasminogen) | enzymatic activity without fibrinogen [1] | fibrinogen-dependent enzymatic activity (culture supernatant r-K2S) (plasminogen) [IU/ml] | fibrinogen-dependent enzymatic activity (periplasmic r-K2S) (plasminogen)
B1 | The positive control lane of standard melanoma tPA also demonstrated enzymatic activity at 66 and 72 kDa positions | standard melanoma tPA showed some activity | – | –
B2 | Transparent areas of serine protease digested plasminogen were observed only in the ammonium sulfate precipitated culture supernatants of XM[K2S] at 34 and 37 kDa postions | Without fibrinogen no enzymatic activity of the r-K2S purified from culture supernatant was observed | 7 | notably low enzymatic activity, which was below the sensitivity of the test (0.25 IU/ml)
